Experimental data as given in patent publication CN117255804A (GENSCRIPT NANJING CO LTD, dated 2023).
Where a chain is given by its changes, count along the chain named. Values belong to the binder of their own block, whether it stands above or below them.

Molecular target: T1, 人4-1BB (human, UniProt Q07011 24-255)
T1 construct: whole, on cells; also called TNFRSF9; CD137
Assay: FACS on HEK293 cells expressing human 4-1BB, 1.0 ug/ml

T1 sequence (Q07011 24-255): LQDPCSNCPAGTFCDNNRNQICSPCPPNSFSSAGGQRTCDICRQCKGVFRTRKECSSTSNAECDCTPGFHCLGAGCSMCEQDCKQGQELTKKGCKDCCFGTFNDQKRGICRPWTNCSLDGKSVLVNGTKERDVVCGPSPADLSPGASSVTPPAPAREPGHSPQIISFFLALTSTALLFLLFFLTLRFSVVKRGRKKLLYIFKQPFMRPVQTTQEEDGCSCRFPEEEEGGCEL

- binding result: binds
B1: 382A3E3-VH1-VL3 (antibody, IgG4, V domains shown)
VH: EVQLVESGGGLVQPGGSLRLSCAASGFTFSDYGMSWVRQAPGKGLEWVSFISNVAYGIFYADTVTGRFTISRDNAKNSLYLQMNSLRAEDTAVYYCARDELGRFDYWGQGTLVTVSS
VL: DIQMTQSPSSLSASVGDRVTITCHVSQNINIWLSWYQQKPGKAPKLLIYKASNLHTGVPSRFSGSGSGTDFTLTISSLQPEDFATYYCQQGQTFPRTFGGGTKVEIK
notes: Humanized mAb; Only VH and VL are tied to it

- binding result: binds
B2: 379E7A6-VH1-VL2 (antibody, IgG4, V domains shown)
VH: B1 VH with V5L, S35A, G57S, I58K, A61V, A75S, S78T, D105P
VL: B1 VL with S10T, Q27H, S34N, D70E, E81D
notes: as for B1

- binding result: binds
B3: 382A3E3-VH2-VL5 (antibody, IgG4, V domains shown)
VH: B1 VH with E1Q, L11V, S49A, A75S, S78T, R98K
VL: B1 VL with M4L, S10F, D70E
notes: as for B1

- binding result: binds
B4: 382A3E3-VH1-VL2 (antibody, V domains shown)
VH: B1 VH
VL: B1 VL with S10T, D70E, E81D
notes: Humanized mAb expressed in CHO-3E7

- binding result: binds
B5: 382A3E3-VH1-VL5 (antibody, IgG4, V domains shown)
VH: B1 VH
VL: B1 VL with M4L, S10F, D70E
notes: as for B1

- binding result: binds
B6: 379E7A6-VH1-VL1 (antibody, IgG4, V domains shown)
VH: B1 VH with V5L, S35A, G57S, I58K, A61V, A75S, S78T, D105P
VL: B1 VL with Q27H, S34N, L73F, F83I
notes: as for B1

- binding result: binds
B7: 382A3E3-VH1-VL4 (antibody, IgG4, V domains shown)
VH: B1 VH
VL: B1 VL with A43V, F83V, G100Q
notes: as for B1

- binding result: binds
B8: 367C3A3-VH1-VL2 (antibody, IgG4, V domains shown)
VH: QVQLVQSGSELKKPGASVKVSCKASGYTFTDYSMHWVRQAPGQGLEWMGWINTETGEPTYADDFKGRFVFSLDTSVSTAYLQISSLKAEDTAVYYCARYDYAMDYWGQGTLVTVSS
VL: DIQMTQSPSTLSASVGDRVTITCKASQDVSSAVAWYQQKSGKAPKLLIYWASIRHTGVPSRFSGSGSGTEFTLTISSLQPDDFATYYCQQRYTTPPTFGGGTKVEIK
notes: as for B1

- binding result: binds
B9: 367C3A3-VH2-VL1 (antibody, IgG4, V domains shown)
VH: QVQLVQSGAEVKKPGASVKVSCKASGYTFTDYSMHWVRQAPGQRLEWMGWINTETGEPTYADDFKGRVTITRDTSASTAYMELSSLRSEDTAVYYCARYDYAMDYWGQGTLVTVSS
VL: B8 VL with T10S, S40P, E70D, D81E
notes: as for B1

- binding result: binds
B10: 367C3A3-VH2-VL2 (antibody, IgG4, V domains shown)
VH: B9 VH
VL: B8 VL
notes: as for B1
